What was measured:
[1] = target: T1, RNA polymerase core enzyme (subunits α2ββ'ω) (UniProt P0A7Z4 1-329; P0A8V2 1-1342; P0A8T7 1-1407; P0A800 1-91); assay: BLI; Octet RED96, 303 K; 0.5 μM Biotin-DinBΔPAD immobilised on streptavidin biosensors, blocked with biocytin; RNAP core as analyte in 2-fold serial dilution; 50 mM KPi pH 6.5, 50 mM NaCl, 25 mM MgCl2, 1 mM TCEP, 0.25% BSA; double referencing; conditions: both partners purified
[2] = target: T1, RNA polymerase core enzyme (subunits …); assay: BLI; Octet RED96, 303 K; 0.5 μM Biotin-DinB immobilised on streptavidin biosensors, blocked with biocytin; RNAP core as analyte in 2-fold serial dilution; 50 mM KPi pH 6.5, 150 mM NaCl, 25 mM MgCl2, 1 mM TCEP, 0.5% BSA; double referencing; conditions: both partners purified

Row | Binder | Kd [1] [nM] | Kd [2] [nM]
1 | DinBΔPAD (DinB^1-230) (domain or fragment, E. coli, UniProt Q47155 1-230, looked up, biotin (EZ-Link NHS-PEG4-Biotin, conditions favouring the amino-terminal α-amino group) in the BLI assay; [U-2H,15N]-labelled in the NMR titration, E. coli DNA polymerase IV (DinB), residues 1-230 (Fingers, Palm, Thumb); stop codon introduced at amino acid 231; also called Biotin-DinBΔPAD; source: E. coli BL21 (λDE3), purified (Ni2+-Histrap, heparin, SEC)) MRKIIHVDMDCFFAAVEMRDNPALRDIPIAIGGSRERRGVISTANYPARKFGVRSAMPTGMALKLCPHLTLLPGRFDAYKEASNHIREIFSRYTSRIEPLSLDEAYLDVTDSVHCHGSATLIAQEIRQTIFNELQLTASAGVAPVKFLAKIASDMNKPNGQFVITPAEVPAFLQTLPLAKIPGVGKVSAAKLEAMGLRTCGDVQKCDLVMLLKRFGKFGRILWERSQGID | 5.9 ± 0.05 | –
2 | DNA polymerase IV (DinB), DinB^1-351 (enzyme, E. coli, UniProt Q47155 1-351, looked up, biotin (EZ-Link NHS-PEG4-Biotin, conditions favouring the amino-terminal α-amino group) in the BLI assay; isotope-labelled ([U-2H,15N] or MALVI^proS methyl-labelled) in the NMR titrations, E. coli DNA polymerase IV (DinB), residues 1-351, from pET28b(+)-DinB (Genscript); No removal of the His6 tag is described for DinB and DinBΔPAD; also called full-length DinB; MALVI^proS-DinB; source: E. coli BL21 (λDE3), purified (Ni2+-Histrap, heparin, SEC)) MRKIIHVDMDCFFAAVEMRDNPALRDIPIAIGGSRERRGVISTANYPARKFGVRSAMPTGMALKLCPHLTLLPGRFDAYKEASNHIREIFSRYTSRIEPLSLDEAYLDVTDSVHCHGSATLIAQEIRQTIFNELQLTASAGVAPVKFLAKIASDMNKPNGQFVITPAEVPAFLQTLPLAKIPGVGKVSAAKLEAMGLRTCGDVQKCDLVMLLKRFGKFGRILWERSQGIDERDVNSERLRKSVGVERTMAEDIHHWSECEAIIERLYPELERRLAKVKPDLLIARQGVKLKFDDFQQTTQEHVWPRLNKADLIATARKTWDERRGGRGVRLVGLHVTLLDPQMERQLVLGL | – | 6.4 ± 0.07
